Experimental data as given in patent US20250295801A1, “CD25 ANTIBODIES, ANTIBODY DRUG CONJUGATES, AND USES THEREOF” (Seagen Inc., priority 2024, published 2025).

Key:
recombinant cyno CD25 = test: Saturation binding analysis by ELISA; parameters: species or system cynomolgus; conditions: compared with human CD25, FIG. 1A, 1B, 7
Protocol: Saturation binding ELISA experiments were performed using soluble recombinant antigens, which were diluted to an appropriate concentration in 50 mM carbonate buffer, pH 9.6. To each well of a 96- or 384-well Maxisorb ELISA plate was added 100 μL of soluble antigen. The plate was sealed and stored at 4° C. overnight. The plate was then washed 3-5 times with PBS-T was buffer (PBS, pH 7.4+0.05% Tween-20). The wells were blocked using 300 μL/well of PBS-T buffer containing BSA for 1 hour at room temperature, then washed 3-5 times with PBS-T. Dilutions of antibodies were prepared in blocking buffer and added to each well in a volume of 100 μL. The antibodies were incubated for 1 hour at room temperature, and then washed 3-5 times with PBS-T. HRP-conjugated secondary antibodies (anti-human Fc) were then added and incubated for 1 hour at room temperature. The plate was washed 3-5 times with PBS-T. The ELISA was developed by adding 100 μL of TMB solution and incubating for 3-15 min at room temperature. To stop the reaction, 100 μL of 1 N sulfuric acid was added to each well. The absorbance at 450 nm was determined using a Spectramax 190 plate reader ([…]) and the data plotted using GraphPad Prism 6.
Saturation binding analysis of CD25 antibody SG25Ab-9 and detuned CD25 antibody SG25Ab-9 YH98A on recombinant human and cyno CD25 was assessed by ELISA.

CD25 expressing cells = test: Internalization into CD25 expressing cells; format: cell-based, human; conditions: FIG. 1E

B1: SG25Ab-4: human anti-CD25 IgG1 antibody; VH SEQ ID NO: 31, VL SEQ ID NO: 32 (antibody, V domains shown)
VH: EVQLVQSGAEVKKPGESLKISCKGPEYSFNRYWIAWVRQRPGKGLEWMGIIYPGDSDARYSPTFEGHVTLSADMSLTTAYLQWSSLRASDTAMYYCARLGSYYAFDIWGKGTMVTVSS
VL: QSALTQPASVSGSPGQSITIFCTGTSSDVGGYNYVSWYQQHPGKAPKLMIYDVSKRPSGVSNRFSGSKSGNTASLTISGLQAEDEADYYCSSYTSSSTWVFGGGTQLTVL
- binding to recombinant cynomolgus CD25 (recombinant cyno CD25): efficiently bound cynomolgus CD25
- internalization into CD25 expressing cells (CD25 expressing cells): efficiently internalized into CD25 expressing cells
